From patent US20200209238A1, “OPTIMIZING DIAGNOSTICS FOR GALACTOFURANOSE CONTAINING ANTIGENS” (The Johns Hopkins University, priority 2017, published 2020)

Columns and labels:
[1] = test system: Aspergillus ethanol precipitate (EP); test: rIntL-1 binding to Aspergillus ethanol precipitate, ELISA; conditions: buffer with 10 mM CaCl2
Procedure: Wells of a microtiter plate were coated with 10 μg/ml of EP antigen and blocked with a blocking buffer containing 0.1% BSA in IntL-ELISA buffer (20 mM HEPES pH7.4; 150 mM NaCl; 10 mM CaCl2); 0.1% Tween-20. Ref: Wesener et al. (2015) Nature Structural & Molecular Biology, 22(8):603). Recombinant human IntL-1 (rintL-1) was serially diluted tenfold in blocking buffer starting at 10^−6 M, and incubated on the EP-coated plate for 2 h at 30° C., followed by washes with IntL-ELISA buffer. The bound IntL was detected by an anti-omentin Rabbit IgG ab (Millipore) diluted 1:1000 in blocking buffer and incubated at 30° C. for 2 h. Wells were again washed and incubated with a goat anti-Rabbit IgG-AP at 1:1000 for 1 h at 30° C. Following another wash, the color was developed by AP substrate for 30 minutes at 37° C.
Conidia from Aspergillus fumigatus were counted and adjusted to 10^6/mL in Sabouraud's Dextrose broth, and grown for 6 hours at 37° C. to germinate (forming hyphae). The collection of swollen, germinating conidia and growing hyphae from already-germinated conidia were killed with heat at 90° C. for 1 h. The fungal material (killed conidia and hyphae) was pelleted by centrifugation, resuspended in IntL-ELISA blocking buffer, and incubated with 10^−7 M rIntL-1 (FLAG-tagged) in presence of 10 μg/mL of either MAb476 or an irrelevant, isotype control antibody mouse IgM for 2 h at 30° C. […]

[2] = test system: Aspergillus fumigatus conidia and hyphae; test: rIntL-1 binding to conidia and hyphae, fluorescence microscopy
Procedure: Conidia from Aspergillus fumigatus were counted and adjusted to 10^6/mL in Sabouraud's Dextrose broth, and grown for 6 hours at 37° C. to germinate (forming hyphae). The collection of swollen, germinating conidia and growing hyphae from already-germinated conidia were killed with heat at 90° C. for 1 h. The fungal material (killed conidia and hyphae) was pelleted by centrifugation, resuspended in IntL-ELISA blocking buffer, and incubated with 10^−7 M rIntL-1 (FLAG-tagged) in presence of 10 μg/mL of either MAb476 or an irrelevant, isotype control antibody mouse IgM for 2 h at 30° C. Following washes with IntL-ELISA buffer, the material was resuspended in IntL-ELISA blocking buffer and incubated with a 1:50 diluted anti-FLAG tag antibody conjugated to the red fluorochrome phycoerythrin (PE). Again, after washes, the stained material was resuspended in IntL-ELISA blocking buffer, transferred to chamber slides and observed under a fluorescent microscope. The inventors performed experiments wherein Aspergillus ethanol precipitate and whole cells (conidia and hyphae) were exposed to rIntL-1 and then a sandwich assay using Rabbit polyclonal antibodies to INTL-1 and goat anti-rabbit antibodies with a fluorescent ligand were performed in buffer comprising 10 mM CaCl2). […] Thus, IntL-1 could be the competitive agent which is interfering with the inventors' antibodies to galF.

[3] = Western blot of urine with mAb476; format: binding, human
Procedure: Studies were performed using urine collected from control patients (pooled) and patient who had Aspergillus infection (VU7). The samples were run in a reducing SDS polyacrylamide gel electrophoresis (PAGE), and the resolved proteins were transferred to a nylon membrane for performing a Western Blot. Some samples used concentrated urine (denoted by “c”) using an Amicon concentrator or were pretreated by desalting columns (denoted by “ds”).

[4] = Immunoprecipitation of urine with mAb476-coated dynabeads; format: binding, human; conditions: normal urine
Procedure: Studies were performed to identify the proteins that are bound by mAb476 after immunoprecipitation, using mass spectrophotometry. To enrich sample detection of moieties specifically binding to mAb476, urines were incubated with superparamagnetic dynabeads coated with mAb476 and a mouse control antibody. mAb476 reactive material was eluted with 50 mM glycine (pH 2.5-3.0). […] Reactivity to mAb476 eluates was confirmed by sandwich ELISA. Eluates were then run on SDS-PAGE gels to check for band patterns, and in-solution mass spectrometry analysis was performed. Analysis detected the microbial antigen CelA/Aspf7 (a galF-containing 0-glycan).

Molecule | binding to Aspergillus ethanol precipitate [1] | binding to whole cells (conidia & hyphae) ([2]; 10^−7 M FLAG-tagged rIntL-1, heat-killed Af293 conidia and hyphae) | effect on cellular rINTL-1 binding (galF recognition) ([2]; 10 μg/mL antibody with 10^−7 M rIntL-1) | reactive bands in Western blot ([3]; healthy human pooled urine) | molecular weight of reactive bands in Western blot ([3]; urine from patients with aspergillosis) [kDa] | binding in immunoprecipitation [4]
rINTL-1: Recombinant human IntL-1 (intelectin-1), FLAG-tagged in the cell binding test (protein) TDEANTYFKEWTCSSSPSLPRSCKEIKDECPSAFDGLYFLRTENGVIYQTFCDMTSGGGGWTLVASVHENDMRGKCTVGDRWSSQQGSKAVYPEGDGNWANYNTFGSAEAATSDDYKNPGYYDIQAKDLGIWHVPNKSPMQHWRNSSLLRYRTDTGFLQTLGHNLFGIYQKYPVKYGEGKCWTDNGPVIPVVYDFGDAQKTASYYSPYGQREFTAGFVQFRVFNNERAANALCAGMRVTGCNTEHHCIGGGGYFPEASPQQCGDFSGFDWSGYGTHVGYSSSREITEAAVLLFYR | bound Aspergillus ethanol precipitate with high affinity | binds to whole cells | – | – | – | –
mAb476: galF-specific monoclonal antibody, VH domain of SEQ ID NO:9 and VL domain of SEQ ID NO:10 (antibody, V domains shown) VH: EVQLEESGGGLVQPGGSLRLSCATSGFTFSDFYMEWVRQTPGERLEWIAASRNKANDYTAEYSASVKGRFTVFRDTSQNILYLQMNALRAEDTAAYYCARDADYGKTFSWYFDVWGAGTTVTVSS VL: DIVMTQDELSNPVTSGESVHISCRSSKSLLYKDGKTYLNWFLQRPGQSPQLLIYLMSTRASGVSDRFSGSGSGTDFTLEISRVKAEDVGVYYCQQLVEYPLTFGAGTKLELK | – | – | GalF recognition is reduced | no reactive bands | 26 to 35 | No mAb476 binding occurred
